Assay: soluble on expression in E. coli; label from the status in PepcDB or PDB records

| Sequence | soluble on expression in E. coli |
| --- | --- |
| GMAQRSILVGQIWHEGHSFNPILTREKDFLFLRGEAVLEEARASSTALSGIVKTAEALGYRCVPSISARARPGGAIEQKVFDNIVDEFVQAARMQDFDAICLDLHGATLAEHTLDTEGYLLSRLREVVGNDIMISLALDLHAYLTPQMVEQATIITSFRTTPHADIEETGVRAMTLLDSLSNETRPPRAIYSLIPFLTRGNDETWSGPLAEIGAAADRWRARSDVVDLSIFNVHPFLDVPGYGQVVLAYDNGSGAAIDACRDLSDMLWKARDEFQEQLMSVDKALEIARTSRQLLALGDQGDRVMGAGPGDSPEIARVALEHFPGLKVAVPVYDPQAVRTAREAGENATVRMAVGGAFTHSVAPLERDWTVRKLCRARFTNIGPYMAGTEADFGDAAVLTCDAVTVIVTTMAPNVHDPAFYEAVGVPLASQQAVVARAANHYKLSFADIARTITVDTPGLTAFKPHQFPFTQARPFYPLDIVQWSFAPLECNKVG | soluble |
| GMDGASEIELVFRPHPTLMEKDDSAQTRYIKTSGNATVDHLSKYLAVRLALEELRSKGESNQMNLDTASEKQYTIYIATASGQFTVLNGSFSLELVSEKYWKVNKPMELYYA | soluble |
| GMDKLVKYQELVKKLLTNYASDDVSDQDVEVQLILDTERNHYQWMNVGWQGLNRIYRCVIHFDIKDGKIWLQQNLTDRNPAEELVMMGVPREDIVLGLQAPYKRQYTDYGVA | soluble |
| GMEFNHLTKQLNQLLAQDYVAFSITENPVVQMLSQASFAQIAYVMQQYSIFPKELVGFTELARRKALGAGWNGVAQELQENIDEEMGSTTGGISHYTLLADGLEEGLGVAVKNTMPSVATSKLLRTVLSLFDRQVDYVLGATYAIEATSIPELTLIVKLVEWLHEGAIPKDLQYFFSKHLDEWEIEHEAGLRTSVAAYIQPEEFGEFAAGFRAMIDAMQVWWQELAQEAISSEVVLSTAIAQHH | soluble |
| GMEQATRTIYSEYAAYPETQGIIAVEKRQPRDSLTDQFDVLLLVITRDPSVEWTVKHYRLNTLRVSLHLVHEQVLSRWLILNANRRAVHWVSEGTIIFERNDYLTDLKKQLRNFPETERCLQMSLSFAKLLRRFQDGRNLFSRGNYYDAYTHVHHALHHLARLSVLEKGAHPEVVVWEQARLDDPDVYKLYEQLLLSEETLEQRIHLALIGLEHLLQSKVLSGGKYLFEVMRERDRPWTMHELMEESRLTELKVDLGSLVDFFIRKGLIRISYQRTKGLGVELVTYEPVV | soluble |
| GMFASLVIPVSAQANSGEMPQEQQLAVKYMDALTEHDYKTLITFYNRDSIFFDKTANRKYTGGRFIIDFLERAHQGVLEYDFNIEHMYNAGSLVVMIGNYHFKGPGEQFGKPGKIIDVAIPAVTSLKLDMLNRRVTEHVDLIDYQTMSDQLAMQ | soluble |
| GMFVWHEYENAAEAAQSLADAVADALQGALDEKGGAVLAVSGGRSPIAFFNALSQKDLDWKNVGITLADERIVPTNHADSNTGLVREYLLKNKAAAAVWIPMVEDGKTETELHPDAVVDYALKHYKQPDVLILGMGNDGHTASIFPKAPQFQTAIDGSAGVALVHTTPVTAPHERISMTLDAIAHTGHVFLAIQGEEKKAVFDQAAQGENREYPISLVLNHQGVNCHVFYAE | soluble |
| GMGDSAGLPPIYADKPIELAPAKIITSFPVNTFLENLASAPDGTIFVTNHEVGEIVSITPDGNQQIHATVEGKVSGLAFTSNGDLVATGWNADSIPVVSLVKSDGTVETLLTLPDAIFLNGITPLSDTQYLTADSYRGAIWLIDVVQPSGSIWLEHPMLARSNSESVFPAANGLKRFGNFLYVSNTEKMLLLRIPVDSTDKPGEPEIFVEQTNIDDFAFDVEGNLYGATHIYNSVVRIAPDRSTTIIAQAEQGVIGSTAVAFGQTEGDCTAIYVVTNGGMFLPPPTGVVPANVVRLEVGKPGYPLG | soluble |
| GMGNIYQITVEEKAEHQRTLSFEFSLHDDLFKLLEKVDGKMDMTPEQTQAFMVGLKLFGEVMMQQRKHPLFKEFSAPFRAFMMNLKKQ | soluble |
| GMIDFTKSKQYTLSIRLSTDGFSFSIYNPINDNSQSLFEKEVDTSLSLTANLKNVFHESDFLSYSYKRVNIMIASKRFTMIPLELFEEEQAELLFYHNHQKRENEIVMYNILKKNNVVIIFGIDKSTYTFLNEQYPEARFYSQSTPLIEYFSIKSRLGNSKKMYASVRKDAIDIYCFERGQLLLANSFECMQTEDRIYYLLYVWKQLEFNQERDELHLTGTLSDKETLMNELKKFILQVFIMNPANNIDMQALLTCE | soluble |
| GMISPERLRVYRFFASLTDEQLKDIALISEEKSFPTGSVIFKENSKADNLMLLLEGGVELFYSNGGAGSAANSTVCSVVPGAIFGVSSLIKPYHYTSSARATKPVRVVDINGARLREMSENNQALGQVLMNNVAAAVLARLH | soluble |
| GMKSQWECFLQNLGVWEGSFSNFSPEGTLLNDTSSRLCLEGLNNNQTVRLTLSRSGKDDVIREFRSVGGGLLFFENGSFSEGLIQLGPFSEFGGELAFVHENRRLRLVQLFDRNGHLNGLTLIREHLAGTPVAERPLLQINDLLGEWRGQAVTIYRDLRPPDIYSTTLKIQLDDAGRLMQSTSFGERTITSTATIKGSIVLFDQDPEKQVQVLLLPDGASATSPLKVQLRQPLFLEAGWLIQSDLRQRMIRSYNDKGEWVSLTLVTEERV | soluble |
| GMKTSVKFETIFPLTTAPLIQCITNEITCESMANALLYIDAKPIMADDPREFPQMFQQTSALVLNLGHLSQEREQSLLAASDYARQVNKLTVVDLVGYGASDIRNEVGEKLVHNQPTVVKGNLSEMRTFCQLVSHGRGVDGSPLDQSEEAIEELIQALRQQTQKFPQTVFLATGIQDVLVSQEQVIVLQNGVPELDCFTGTGDLVGALVAALLGEGNAPMTAAVAAVSYFNLCGEKAKTKSQGLADFRQNTLNQLSLLMKEKDWFEAVKGRVL | soluble |
| GMLDNAIPQGFEDAVELRRKNRETVVKYMNTKGQDRLRRHELFVEDGCGGLWTTDTGSPIVIRGKDKLAEHAVWSLKCFPDWEWYNIKVFETDDPNHFWVECDGHGKILFPGYPEGYYENHFLHSFELDDGKIKRNREFMNVFQQLRALSIPVPQIKREGIPT | soluble |
| GMMNTTTLDRYFDLFDASRTDEKAFDDLISLFSDEITFVLNGQEQHGIDAWKQFVRMVFTANQDIKHMYAGWVPSETGDTMETRWAVCGKSADGSVFTQDGTDIARLNADGKIVYLANVPDDTAMFNQYND | soluble |
| GMPQPTVLLLARADLSPVGTEFTTGPIDAHDPFDSGRRTAFVDEQGIAAGIVEFGTALSVEAYPYTEMLVMHRGSVTLTSGTDSVTLSTGESAVIGRGTQVRIDAQPESLWAFCASTQASGPDKSGITALDRLALLTPSSPPDPSIMISPLPQCRSNNLFEDTASTLRIGVWDSTPYERISRPHKIHELMNLIEGRVVLSLENGSSLTVNTGDTVFVAQGAPCKWTSTGYVRKFYAVT | soluble |
| GMQFPSIEDLRARNTMKWTRYGQGVLPLWVAESDFSTCPAVLQAITDAVQREAFGYQPDGSLLSQATAEFYADRYGYQARPEWIFPIPDVVRGLYIAIDHFTPAQSKVIVPTPAYPPFFHLLSATQREGIFIDATGGINLHDVEKGFQAGARSILLCNPYNPLGMVFAPEWLNELCDLAHRYDARVLVDEIHAPLVFDGQHTVAAGVSDTAASVCITITAPSKAWNIAGLKCAQIIFSNPSDAEHWQQLSPVIKDGASTLGLIAAEAAYRYGTDFLNQEVAYLKNNHDFLLHEIPKRIPGAKITPMQATYLMWIDFRDTTIEGSPSEFFIEKAKVAMNDGAWFGEDGTGFCRLNFATSREVLEEAIDRMAKAVSHHT | soluble |
| GMQKLTRINDFNEVLNSRKSVKVFDENYKIPREEMDEIITKATKAPSSVNMQPWRIAVVQSDEMKEKVKESFGFNSRQLTTSSAMLIIFGDLQNYEKAEQIYGDAVEQQLMTEDIKAQLLDWILPYYKNLSREGMKDIVNIDSSLMAMQLMLTAKAHGYDTNPIGGFDKENIADIIGYDSDRYVPVLAIAIGKKAQDAHDSVRLPIDDVREFL | soluble |
| GMREMQIMSQPEQSRLDLFIDRMVSQRACLEHAIAQTAGLSGPVYELGLGNGRTYHHLRQHVQGREIYVFERAVASHPDSTPPEAQLILGDIRETLPATLERFGATASLVHADLGGHNREKNDRFARLISPLIEPHLAQGGLMVSSDRMYFEGLEELPLPPGAVVGRCFIYRRG | soluble |
| GMRVDKHEVRVGELAAGQPLSLPVYRFKGKGAGPSVYIQANVHGAEVQGNAVIYQLMKLLEHYELLGDISLVPLANPLGINQKSGEFTLGRFDPITGVNWNREYLDHGFNIEVWYQEHSHLDDDTLITAFRATLVEECARRLNNPWGVTTGHRLAVTLQSMAHRADIVLDLHTGPKSCKHLYCPEYERSAAQYFSIPYTLLIPNSFGGAMDEAAFVPWWTLAEVASSHGRELGVRVSALTLELGSQERIDLDDALEDAEGILAYLSHRGVIAETVLPKPMKRYGCFLKNYRKFHAPKAGMVEYLGKVGVPMKATDPLVNLLRLDLYGTGEELTVLRLPEDGVPILHFASASVHQGTELYKVMTKVFEL | soluble |
| GMSIYNSIGKQYSQTRVPDIRIVNAIINLLNLPKGSVIADIGAGTGGYSVALANQGLFVYAVEPSIVMRQQAVVHPQVEWFTGYAENLALPDKSVDGVISILAIHHFSHLEKSFQEMQRIIRDGTIVLLTFDIRLAQRIWLYDYFPFLWEDALRFLPLDEQINLLQENTKRRVEAIPFLLPHDLSDLFAAAAWRRPELYLKAEVRAGISSFALANQDLVEKGLELLTADLNNGEWIRKYGEIHHLQEIDIGYRFIYTTLDK | soluble |
| GMTAPTLSRAAMEKVIRTYYDGCNEADEAKMIACFVPEAVHYFPAGMYGGAFRGAAQIAHRWRTAVETLGSYWTIDALVIDAETAEAAIEWTHFKTNQDKVLRGAECVEFDRASGLIREIRAFYASPQAEGIARLELGDFDYAGRGYRVTSPRKPA | soluble |
| GMTDAPADAPLDADARRAVKPVICYPNDSLPRPDLALYRAARASARKTGEVLVPPREGRCFEVKAGQFFRISSVEGPQVGDLNLHNLHDLTERFFSGKTRALHGTHVTTGERLWSNLPYLRPMATIIEDTLGWYGIDQYGGSVHDVIGTRCDPYTGNLLAGGHYHHCCHSNLTRALADHTGLPLHEAEMLVHDVLNVFMCTGFTRDTGQYFMKASPVRPGDYLEFFAEIDLLGNLSACPGGDCSSEHSSDTASCHPLLVEIFAPAEGMLGDWPSPSVNGYDRSHGR | soluble |
| GMTKIRKIAVFIEETRIEAGREISPPTRKAVAVAVIENPFAGRYVEDLTELMDTGAELGALLGERCVQALGIRPEQAESYGKSAMVGENGELEHAAAILHPKLGAPLRKAVEKGAALVPSSKKMGSPGQVLDVPLGHKDAAYVRSHFDGIEVRLNDAPRANEIMVAVAVTDSGRPLPRVGGLTHDAAEGKDGLR | soluble |
| GMTSSFTDYCKFFNRILSEVQETQEQAIIKGAHLVSEAVMNGGRFYVFGSGHSHMIAEEIYNRAGGLALVTAILPPELMLHERPNKSTYLERIEGLSKSYLKLHQVTNKDVIMIISNSGRNTVPVEMAIESRNIGAKVIAMTSMKHSQKVTSRHKSGKKLYEYADVVLDNGAPVGDAGFQIANSEIYSGATSDSIGCFLAQALIVETLHLLVQQGFEPPVFKSSNVDGADLYNDKIFNEYVKW | soluble |
| GMTSTSITAVEYQSKRLESRLLKETREYVIALPEGYAQSLEAYPVVYLLDGEDQFDHMASLLQFLSQGTMPQIPKVIIVGIHNTNRMRDYTPTHTLVLPSGNKGNPQYQHTGGAGRFLDFIEKELAPSIESQLRTNGINVLVGHSFGGLVAMEALRTDRPLFSAYLALDTSLWFDSPHYLTLLEERVVKGDFKQKQLFMAIANNPLSPGFGVSSYHKDLNLAFADKLTKLAPKGLGFMAKYYPEETHQSVSHIGLYDGIRHLFKDFAIDIYSDSFSKQQVIDQYGVLSERFGHKVTPSQQYLEQLIQYSDRQQLTERKQMLEGLRQHFAKD | soluble |

— the DeepSol protein solubility set
